# “Also recorded” adds a separate entry of the source.
# Tests used:
# [1] = target: T1, Amyloid beta 1-42 peptide (Rattus norvegicus, UniProt P08592); assay: Total Amyloid beta 1-42 peptide in rat brain homogenates (ELISA); format: in vivo; details: Sprague-Dawley rats, 0.25-10 mg/kg weekly over 14 days
# T1 construct: Measurement of free Amyloid beta 1-42 peptide in rat CSF; from tissue; host or cells: CSF and brain homogenate of Sprague-Dawley rats
# Procedure: (§1) Eight-week old male albino Harlan Sprague-Dawley rats (n=8-12) received a single dose of Abet0380-GL IgG1-TM antibody by intravenous injection with a dosing vehicle of 25 mM Histidine, 7% Sucrose, 0.02% p80 surfactant, pH 6.0 at 5 ml/kg. Dosing solutions were made just before dosing. Animals were anaesthetized at the time indicated and cerebrospinal fluid (CSF) was aspirated from the cistema magna. CSF samples were centrifuged for 10 minutes at approximately 3000× g at 4° C. within 20 minutes of sampling to remove cells or debris. Samples were then frozen on dry ice and stored at −70° C. for subsequent analysis.
# Animals were sacrificed by decapitation, brain tissue was dissected and Amyloid beta peptides were extracted from brain tissue in diethylamine (DEA; Fluka. Sigma. UK; cat: 31729). Briefly, frozen brain tissue was homogenized in 0.2% DEA and 50 mM NaCl (Merck, USA: cat: 1.06404.1000). Brain homogenates were ultracentrifuged at 133,000×g, for 1 hour. Recovered supernatants were neutralized to pH 8.0 with 2 M Tris-HCl (TRIZMA®-hydrochloride; Sigma, UK; cat: 93363) and stored at −70° C. until analysis. Animal experimentations were performed in accordance with relevant guidelines and regulations provided by the Swedish Board of Agriculture. The ethical permission was provided by an ethical board specialized in animal experimentations: the Stockholm Södra Animal Research Ethical Board.
# Measurement of total (free and Abet0380-GL bound) Amyloid beta 1-42 peptide in rat brain homogenates was performed using modifications of the mouse Amyloid beta (1-42) colorimetric ELISA kit (Invitrogen, UK: cat: KMB3441). […] To stop the reaction, 100 μl of Stop Solution was added to each well and the plate was read within 2 hours at an absorbance of 450 nm. […]
# The ability of antibody Abet0144-GL to sequester amyloid beta 1-42 was investigated in a PK-PD study in normal rats. […] Free and total amyloid beta 1-42 levels were measured using assays described above.
# [2] = target: T1, Amyloid beta 1-42 peptide; assay: Free Amyloid beta 1-42 peptide in rat CSF (immunoprecipitation + ELISA); format: in vivo; details: for reduction of free Amyloid beta 1-42 peptide in CSF vs vehicle control: rats, 168 h after second dose
# Procedure: as §1
# Measurement of free Amyloid beta 1-42 peptide in rat CSF was conducted using immunoprecipitation to remove Abet0380-GL bound Amyloid beta 1-42 peptide, followed by analysis by a commercial ELISA kit obtained from Invitrogen. Briefly, a solution of protein A beads (Dynabeads® Protein A; Invitrogen, UK; cat: 100-02D) was added to a 96 well non-skirted plate (polypropylene 0.2 ml; VWR International, UK; cat: 10732-4828) and washed twice with TBST (50 mM TBS; Sigma, UK; cat: T6664 plus 0.1% Tween20) using a magnet (DynaMag™ 96 side; Invitrogen, UK; cat: 123.31 D) to separate the beads from the solution. Thawed rat CSF samples (40 μl) were added to each well and incubated at […] with tilt rotation for 1 hour. The beads were then pelleted using the magnet and 30 μl of immunoprecipitated CSF samples were transferred to a 96 well plate from the ELISA kit (mouse Amyloid beta (1-42) colorimetric ELISA kit; Invitrogen, UK; cat: KMB3441) with 70 μl of the Standard Diluent Buffer already added (supplemented with protease inhibitor; Roche, UK; cat: 11836153001). Calibration standard samples were added to the plate in duplicate and the plate was incubated for 2 hours at room temperature with shaking. The plate was washed 4 times with 400 µl of wash buffer, 100 μl of the detection antibody solution was added to each well and the plate was incubated for 1 hour at room temperature with shaking. Again, the plate was washed 4 times with 400 μl of wash buffer, 100 μl of the secondary antibody working solution was added to each well and the plate was incubated for 30 minutes at room temperature with shaking. Finally, the plate was washed 4 times with 400 μl of wash buffer, 100 μl of stabilized Chromogen was added to each well and the plate was incubated for 30 minutes at room temperature in the dark. To stop the reaction, 100 μl of Stop Solution was added to each well and the plate was read within 2 hours at an absorbance of 450 nm. Single CSF samples were analyzed and data analysis was performed using Prism 4 (GraphPad, USA) with one-way ANOVA on log transformed data without adjustment for multiple comparisons.
# To further investigate the effect of the Abet0380-GL IgG1-TM antibody in vivo, rats were administered weekly doses of 0.25, 0.5, 1, 5 or 10 mg/kg over 14 days. Animals were euthanized 168 hours after the second dose to measure levels of free Amyloid beta 1-42 peptide in CSF as well as total Amyloid beta 1-42 or 1-40 peptides in brain tissue.
# The ability of antibody Abet0144-GL to sequester amyloid beta 1-42 was investigated in a PK-PD study in normal rats. Rats were intravenously administered Abet0144-GL (10 or 40 mg/kg) or vehicle weekly for 2 weeks (on days 0 and 7), and sacrificed a week after the 2nd dose. […] Free and total amyloid beta 1-42 levels were measured using assays described above.
# [3] = test system: Amyloid plaques; assay: In vitro immunohistochemistry on human Alzheimer's Disease brain sections
# Excerpt: Briefly, the lead antibodies were screened on human Alzheimer's Disease brain sections and Tg2576 mouse brain sections to identify anti-Amyloid beta 1-42 antibodies that bound to Amyloid plaques in vitro.
# In these experiments, human brain tissue was isolated from the frontal cortex of two individuals with severe Alzheimer's Disease (ApoE genotype 3/3, Braak stage 6 and ApoE genotype 4/3, Braak stage 5). As a control, equivalent tissue was isolated from one non-dementia individual (ApoE genotype 3/3, Braak stage 1). Mouse brain tissue was isolated from Tg2576 mice at an age of 15 months (2 mice) and 22 months (2 mice). Antibodies were tested at concentrations of 2, 5, 10 and 20 ug ml^−1.
# T1 sequence (P08592 672-713 limits assumed): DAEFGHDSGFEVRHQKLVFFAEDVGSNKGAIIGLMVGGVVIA
molecule,measurement,setting,value
"Abet0380-GL IgG1-TM: germlined Abet0380; VH SEQ ID NO: 524, VL SEQ ID NO: 533; human IgG1 triple mutant format (antibody, listed as Homo sapiens, V domains shown, human IgG1 triple mutant constant region; /note=“Abet0380-GL”, germlined Abet0380; human IgG1 triple mutant format) VH: EVQLLESGGGLVQPGGSLRLSCAASMGNFNYQTMWWVRQAPGKGLEWVSVIGKTNENIAYADSVKGRFTISRDNSKNTLYLQMNSLRAEDTAVYYCAREWMDHSRPYYYYGMDVWGQGTLVTVSS VL: SYELTQPPSVSVSPGQTASITCSGHNLEDKFASWYQQKPGQSPVLVIYRDDKRPSGIPERFSASNSGHTATLTISGTQAMDEADYYCSSQDTVTRVFGGGTKLTVL",effect on total Amyloid beta 1-42 peptide in brain tissue,[1],dose-dependent increase
same,effect on free Amyloid beta 1-42 in CSF,"[2]; Sprague-Dawley rats, 0.25-10 mg/kg weekly over 14 days",dose-dependent decrease; also recorded: dose-dependent reduction
same,reduction of free Amyloid beta 1-42 peptide in CSF vs vehicle control,"[2]; 0.25 mg/kg weekly over 14 days, not statistically significant",14%
same,reduction of free Amyloid beta 1-42 peptide in CSF vs vehicle control,[2]; 0.5 mg/kg weekly over 14 days,47%
same,reduction of free Amyloid beta 1-42 peptide in CSF vs vehicle control,[2]; 1 mg/kg weekly over 14 days,61%
same,plaque recognition score,"[3]; human AD brain section, ApoE genotype 3/3, Braak stage 6, 10 μg/ml",3
same,core plaques (CP) staining score,[3]; human AD brain sections,3
same,staining of diffuse plaques (DP) and cerebral amyloid angiopathy (CAA) plaques,"[3]; relative to core plaques, Tg2576 and human AD brain sections",to a lesser extent
